Reference: article PMC5490261, “The structural and functional characterization of human RecQ4 reveals insights into its helicase mechanism”
Residue numbers refer to the chain shown, from its start.

What was measured:
Test in all cases: fluorescence polarization; WT-like affinity; figure values not assignable from text layer; 20 mM HEPES pH 8.0, 10 mM NaCl, 5% glycerol, 1 mM MgCl2, 0.5 mM TCEP, 0.5 nM Cy3-ssDNA; temperature not stated
Details in all cases: protein: recombinant; tags: Trx-His6 removed by 3C protease; label: 5' Cy3
RecQ4 427-1208 F617L = target: T1, RecQ4 427-1208 F617L (Homo sapiens, UniProt O94761 427-1208, F617L)
T1 sequence: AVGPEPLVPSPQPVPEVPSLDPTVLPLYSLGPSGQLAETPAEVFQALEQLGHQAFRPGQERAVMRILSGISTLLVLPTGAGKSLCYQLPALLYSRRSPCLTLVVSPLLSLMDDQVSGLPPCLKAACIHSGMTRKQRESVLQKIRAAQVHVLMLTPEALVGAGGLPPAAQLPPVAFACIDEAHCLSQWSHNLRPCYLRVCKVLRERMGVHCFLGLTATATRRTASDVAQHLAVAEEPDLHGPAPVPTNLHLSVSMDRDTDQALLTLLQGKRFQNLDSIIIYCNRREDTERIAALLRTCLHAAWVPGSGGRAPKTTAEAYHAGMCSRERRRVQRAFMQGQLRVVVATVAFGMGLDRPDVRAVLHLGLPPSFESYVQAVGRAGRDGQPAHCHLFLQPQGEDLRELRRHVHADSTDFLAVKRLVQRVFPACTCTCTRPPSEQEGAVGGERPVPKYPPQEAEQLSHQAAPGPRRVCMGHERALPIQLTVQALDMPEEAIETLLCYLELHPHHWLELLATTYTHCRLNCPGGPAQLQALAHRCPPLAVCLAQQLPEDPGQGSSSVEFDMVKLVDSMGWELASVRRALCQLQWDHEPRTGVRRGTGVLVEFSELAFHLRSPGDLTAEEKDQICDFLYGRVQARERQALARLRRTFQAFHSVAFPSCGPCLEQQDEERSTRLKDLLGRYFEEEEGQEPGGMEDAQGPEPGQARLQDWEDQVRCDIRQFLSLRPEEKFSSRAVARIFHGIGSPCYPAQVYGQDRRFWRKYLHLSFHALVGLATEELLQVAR

RecQ4 427-1208 R618L = target: T2, RecQ4 427-1208 R618L (Homo sapiens, UniProt O94761 427-1208, R618L)
T2 sequence: T1 sequence with L191F, R192L

RecQ4 427-1208 W613L = target: T3, RecQ4 427-1208 W613L (Homo sapiens, UniProt O94761 427-1208, W613L)
T3 sequence: T1 sequence with W187L, L191F

Measured: binding result

CCATTCCACCCTCTATTTTTTTTTTTTTTT (ssDNA) [T3-Cy3]
binds: all assays above
